Experimental data from the supplement of paper PMC7877785.
± gives the uncertainty stated by the source.

Assay: self-splicing fitness, log relative to wild type (ln ratio); higher = more splicing; Tetrahymena group I intron in knt gene, E. coli kanamycin selection, DiMSum; sequences stand for … in CUCUCU…GGAGGGAAAAGUUAUCAGGCAUGCACCUGGUAGCUAGUCUUUAAACCAAUAGAUUGCAUCGGUUUAAAAGGCAAGACCGUCAAAUUGCGGGAAAGGGGUCAACAGCCGUUCAGUACCAAGUCUCAGGGGAAACUUUGAGAUGGCCUUGCAAAGGGUAUGGUAAUAAGCUGACGGACAUGGUCCUAACCACGCAGCCAAGUCCUAAGUCAACAGAUCUUCUGUUGAUAUGGAUGCAGUUCACAGACUAAAUGUCGGUCGGGGAAGAUGUAUUCUUCUCAUAAGAUAUAGUCGGACCUCUCCUUAAUGGGAGCUAGCGGAUGAAGUGAUGCAACACUGGAGCCGCUGGGAACUAAUUUGUAUGCGAAAGUAUAUUGAUUAGUUUUGGAGUACUCGUGGUCG
Method in brief: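 Pooled colonies went to amplicon sequencing on an Illumina HiSeq 2500 after six replicate transformations. The plates were LB agar with 100 μg/mL carbenicillin, 50 μM IPTG and 0.2% rhamnose, with or without 25 μg/mL kanamycin, incubated overnight at 37°C or 30°C. The E. coli BL21(DE3) library had all eight P1ex-region intron nucleotides randomised, the intron placed in the knt kanamycin-resistance gene on pET-22b(+). DiMSum fitness is the error-weighted combination of replicate fold changes, kanamycin against none, normalised to wild type.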

GCCGAGCAAUAUUACGGCCG
self-splicing fitness (ln) (37 °C): -1.7 ± 0.47

GCCGAGCAAUAUUACGGGGA
self-splicing fitness (ln) (30 °C): -1.36 ± 0.069
self-splicing fitness (ln) (37 °C): -0.555 ± 0.069

GCCGAGCAAUAUUACGGGUG
self-splicing fitness (ln) (30 °C): -0.694 ± 0.067
self-splicing fitness (ln) (37 °C): -0.014 ± 0.075

GCCGAGCAAUAUUACGGUAC
self-splicing fitness (ln) (30 °C): -2.88 ± 0.15
self-splicing fitness (ln) (37 °C): -0.908 ± 0.24

GCCGAGCAAUAUUACGGUAU
self-splicing fitness (ln) (30 °C): -1.89 ± 0.13
self-splicing fitness (ln) (37 °C): -0.878 ± 0.12

GCCGAGCAAUAUUACGGUCA
self-splicing fitness (ln) (30 °C): -1.63 ± 0.098
self-splicing fitness (ln) (37 °C): -0.977 ± 0.09

GCCGAGCAAUAUUACGGUUG
self-splicing fitness (ln) (30 °C): -1.38 ± 0.14
self-splicing fitness (ln) (37 °C): -0.555 ± 0.19

GCCGAGCAAUAUUACGUAAG
self-splicing fitness (ln) (30 °C): -2.26 ± 0.13
self-splicing fitness (ln) (37 °C): -1.09 ± 0.12

GCCGAGCAAUAUUACGUCAU
self-splicing fitness (ln) (30 °C): -3.5 ± 0.25
self-splicing fitness (ln) (37 °C): -1.31 ± 0.17

GCCGAGCAAUAUUACGUGCC
self-splicing fitness (ln) (30 °C): -3.35 ± 0.15
self-splicing fitness (ln) (37 °C): -2.52 ± 0.2

GCCGAGCAAUAUUACGUGUG
self-splicing fitness (ln) (30 °C): -1.43 ± 0.07
self-splicing fitness (ln) (37 °C): -0.815 ± 0.081

GCCGAGCAAUAUUACGUGUU
self-splicing fitness (ln) (30 °C): -2.22 ± 0.088
self-splicing fitness (ln) (37 °C): -1.66 ± 0.1

GCCGAGCAAUAUUACGUUUG
self-splicing fitness (ln) (30 °C): -3.75 ± 0.2
self-splicing fitness (ln) (37 °C): -1.54 ± 0.19

GCCGAGCAAUAUUACGUUUU
self-splicing fitness (ln) (30 °C): -3.18 ± 0.18
self-splicing fitness (ln) (37 °C): -1.75 ± 0.14

GCCUAGCAAUAUUACGAACG
self-splicing fitness (ln) (30 °C): -2.19 ± 0.19
self-splicing fitness (ln) (37 °C): -0.701 ± 0.27

GCCUAGCAAUAUUACGAAGC
self-splicing fitness (ln) (30 °C): -2.24 ± 0.13
self-splicing fitness (ln) (37 °C): -2.15 ± 0.19

GCCUAGCAAUAUUACGACGU
self-splicing fitness (ln) (30 °C): -0.19 ± 0.058
self-splicing fitness (ln) (37 °C): 0.0659 ± 0.07

GCCUAGCAAUAUUACGAGGU
self-splicing fitness (ln) (30 °C): -3.07 ± 0.18
self-splicing fitness (ln) (37 °C): -2.9 ± 0.23

GCCUAGCAAUAUUACGAGUC
self-splicing fitness (ln) (30 °C): -0.636 ± 0.14
self-splicing fitness (ln) (37 °C): -0.0225 ± 0.18

GCCUAGCAAUAUUACGCCAG
self-splicing fitness (ln) (30 °C): -2.75 ± 0.27
self-splicing fitness (ln) (37 °C): -2.67 ± 0.48

GCCUAGCAAUAUUACGCCUU
self-splicing fitness (ln) (30 °C): -1.15 ± 0.086
self-splicing fitness (ln) (37 °C): -0.212 ± 0.1

GCCUAGCAAUAUUACGCUUC
self-splicing fitness (ln) (30 °C): -2.42 ± 0.16
self-splicing fitness (ln) (37 °C): -0.334 ± 0.13

GCCUAGCAAUAUUACGCUUG
self-splicing fitness (ln) (30 °C): -2.37 ± 0.17
self-splicing fitness (ln) (37 °C): -1.96 ± 0.26

GCCUAGCAAUAUUACGGGAU
self-splicing fitness (ln) (30 °C): -0.903 ± 0.11
self-splicing fitness (ln) (37 °C): 0.0611 ± 0.13

GCCUAGCAAUAUUACGGUGC
self-splicing fitness (ln) (30 °C): -2.59 ± 0.15
self-splicing fitness (ln) (37 °C): -1.48 ± 0.14

GCCUAGCAAUAUUACGGUUC
self-splicing fitness (ln) (30 °C): -1.02 ± 0.07
self-splicing fitness (ln) (37 °C): -1.45 ± 0.11

GCCUAGCAAUAUUACGGUUG
self-splicing fitness (ln) (30 °C): -3.8 ± 0.14
self-splicing fitness (ln) (37 °C): -1.62 ± 0.11

GCCUAGCAAUAUUACGUGAG
self-splicing fitness (ln) (30 °C): -1.21 ± 0.085
self-splicing fitness (ln) (37 °C): -0.757 ± 0.091

GCCUAGCAAUAUUACGUUAA
self-splicing fitness (ln) (30 °C): -1.86 ± 0.13
self-splicing fitness (ln) (37 °C): -1.28 ± 0.13

GCCUAGCAAUAUUACGUUCA
self-splicing fitness (ln) (30 °C): -1.37 ± 0.16
self-splicing fitness (ln) (37 °C): -1.12 ± 0.17

GCCUAGCAAUAUUACGUUCG
self-splicing fitness (ln) (30 °C): -2.74 ± 0.15
self-splicing fitness (ln) (37 °C): -2.09 ± 0.19

GCCUAGCAAUAUUACGUUGA
self-splicing fitness (ln) (30 °C): -1.54 ± 0.11
self-splicing fitness (ln) (37 °C): -0.577 ± 0.1

GCCUAGCAAUAUUACGUUGC
self-splicing fitness (ln) (30 °C): -1.05 ± 0.076
self-splicing fitness (ln) (37 °C): -0.0792 ± 0.081

GCCUAGCAAUAUUACGUUUA
self-splicing fitness (ln) (30 °C): -2.34 ± 0.18
self-splicing fitness (ln) (37 °C): -1.7 ± 0.14

GCGAAGCAAUAUUACGAACG
self-splicing fitness (ln) (30 °C): -1.63 ± 0.16
self-splicing fitness (ln) (37 °C): -0.889 ± 0.21

GCGAAGCAAUAUUACGAAUU
self-splicing fitness (ln) (30 °C): -2.58 ± 0.16
self-splicing fitness (ln) (37 °C): -2.38 ± 0.3

GCGAAGCAAUAUUACGACCG
self-splicing fitness (ln) (30 °C): -1.66 ± 0.25
self-splicing fitness (ln) (37 °C): -0.671 ± 0.21

GCGAAGCAAUAUUACGAGAA
self-splicing fitness (ln) (30 °C): -2.63 ± 0.46
self-splicing fitness (ln) (37 °C): -1.38 ± 0.26

GCGAAGCAAUAUUACGAUUG
self-splicing fitness (ln) (30 °C): -2.92 ± 0.097
self-splicing fitness (ln) (37 °C): -1.64 ± 0.096

GCGAAGCAAUAUUACGCAUU
self-splicing fitness (ln) (30 °C): -2.56 ± 0.17
self-splicing fitness (ln) (37 °C): -2.15 ± 0.19

GCGAAGCAAUAUUACGCCAU
self-splicing fitness (ln) (37 °C): -2.48 ± 0.36

GCGAAGCAAUAUUACGCCGU
self-splicing fitness (ln) (30 °C): -3.41 ± 0.35
self-splicing fitness (ln) (37 °C): -1.81 ± 0.29

GCGAAGCAAUAUUACGCUUU
self-splicing fitness (ln) (30 °C): -2.27 ± 0.19
self-splicing fitness (ln) (37 °C): -2.03 ± 0.4

GCGAAGCAAUAUUACGGACG
self-splicing fitness (ln) (30 °C): -0.0597 ± 0.13
self-splicing fitness (ln) (37 °C): -0.969 ± 0.2

GCGAAGCAAUAUUACGGAGU
self-splicing fitness (ln) (30 °C): -3.66 ± 0.2
self-splicing fitness (ln) (37 °C): -3.43 ± 0.42

GCGAAGCAAUAUUACGGAUA
self-splicing fitness (ln) (30 °C): -1.76 ± 0.12
self-splicing fitness (ln) (37 °C): -0.933 ± 0.12

GCGAAGCAAUAUUACGGGGG
self-splicing fitness (ln) (30 °C): -2.43 ± 0.24
self-splicing fitness (ln) (37 °C): -2.48 ± 0.34

GCGAAGCAAUAUUACGGUCA
self-splicing fitness (ln) (30 °C): -1.7 ± 0.11
self-splicing fitness (ln) (37 °C): -1.36 ± 0.1
